Measurements published in PMC3169409.

Legend:
[1] = target: nitrilotriacetate monooxygenase component B from Mycobacterium thermoresistibile (Mycobacterium thermoresistibile); assay: SEC; Superdex 75 26/60 in 20 mM HEPES pH 7.0, 300 mM NaCl, 5% glycerol, 1 mM TCEP
[2] = target: nitrilotriacetate monooxygenase component B from Mycobacterium thermoresistibile (Mycobacterium thermoresistibile); assay: crystal structure; apo structure at 1.6 Å, space group P212121; two independent dimers in the asymmetric unit; crystals from 0.2 M magnesium chloride, 0.1 M MES pH 6.0, 20% PEG 6000 at 289 K

**Q.** “nitrilotriacetate monooxygenase component B from Mycobacterium thermoresistibile (enzyme)” was tested. Which stoichiometry N [1] did it give?
**A.** Its stoichiometry N is 2.

**Q.** What about the stoichiometry N [2] of the same substance?
**A.** The stoichiometry N was 2.
